Reference: the supplement of paper PMC9112550, “Optimization of the antimicrobial peptide Bac7 by deep mutational scanning” (BMC Biology, 2022)

Test system: Escherichia coli TOP10
Assay: shrunken log2 fold change of peptide-encoding DNA abundance (4.5 h post-induction vs induction); higher = less antimicrobial activity (less host growth inhibition)
Details: time post-induction: 4.5 h; library: site-saturation at positions 5, 18, 19, 20
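Note: peptides expressed intracellularly from a pBAD plasmid library in pooled LB shake-flask culture, induced with 0.3% L-arabinose, DNA abundance read by NGS, three biological replicates, DESeq2 with apeglm shrinkage.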

Sequence	shrunken log2 fold change
RRIRPRPPRLPRPRPRPKTIPRP	-0.0767
RRIRLRPPRLPRPRPRPQPEPRP	0.419
RRIRMRPPRLPRPRPRPIEHPRP	-0.0129
RRIRRRPPRLPRPRPRPQAGPRP	-9.87e-05
RRIRRRPPRLPRPRPRPCSCPRP	-0.017
RRIRQRPPRLPRPRPRPRRQPRP	0.197
RRIRIRPPRLPRPRPRPIFFPRP	-0.123
RRIRYRPPRLPRPRPRPHYAPRP	-0.0853
RRIRVRPPRLPRPRPRPNTPPRP	-0.0576
RRIRSRPPRLPRPRPRPHQYPRP	-0.549
RRIRLRPPRLPRPRPRPMMEPRP	0.195
RRIRPRPPRLPRPRPRPDGLPRP	-0.117
RRIRVRPPRLPRPRPRPPQSPRP	0.249
RRIRYRPPRLPRPRPRPPMRPRP	0.317
RRIRFRPPRLPRPRPRPRFMPRP	-0.117
RRIRERPPRLPRPRPRPDKRPRP	-0.023
RRIRYRPPRLPRPRPRPHKLPRP	-0.188
RRIRMRPPRLPRPRPRPTCDPRP	0.79
RRIRKRPPRLPRPRPRPGRTPRP	0.223
RRIRIRPPRLPRPRPRPERRPRP	0.264
RRIRERPPRLPRPRPRPPFIPRP	-0.299
RRIRARPPRLPRPRPRPNCEPRP	0.186
RRIRMRPPRLPRPRPRPTSYPRP	-0.0286
RRIRIRPPRLPRPRPRPGNLPRP	-0.175
RRIRTRPPRLPRPRPRPTHTPRP	0.0425

Sequence	shrunken log2 fold change
RRIRTRPPRLPRPRPRPPIAPRP	0.328
RRIRLRPPRLPRPRPRPCYCPRP	-0.219
RRIRARPPRLPRPRPRPLFFPRP	0.577
RRIRCRPPRLPRPRPRPFYEPRP	-0.741
RRIRTRPPRLPRPRPRPDHIPRP	-0.242
RRIRFRPPRLPRPRPRPNNVPRP	-0.179
RRIRCRPPRLPRPRPRPSAKPRP	0.189
RRIRNRPPRLPRPRPRPLKNPRP	-0.234
RRIRGRPPRLPRPRPRPVHMPRP	-0.0938
RRIRIRPPRLPRPRPRPMAFPRP	-0.0587
RRIRIRPPRLPRPRPRPWHQPRP	-0.00186
RRIRIRPPRLPRPRPRPDWCPRP	-0.149
RRIRDRPPRLPRPRPRPVNCPRP	-0.328
RRIRLRPPRLPRPRPRPSCRPRP	-0.116
RRIRTRPPRLPRPRPRPDTFPRP	0.0276
RRIRMRPPRLPRPRPRPFCHPRP	-0.0129
RRIRRRPPRLPRPRPRPSDTPRP	-0.0536
RRIRMRPPRLPRPRPRPSHTPRP	0.0597
RRIRRRPPRLPRPRPRPLHYPRP	0.239
RRIRDRPPRLPRPRPRPGEQPRP	0.259
RRIRVRPPRLPRPRPRPYRNPRP	-0.0374
RRIRPRPPRLPRPRPRPCMSPRP	-0.0701
RRIRKRPPRLPRPRPRPEGSPRP	0.102
RRIRVRPPRLPRPRPRPCASPRP	0.116
RRIRQRPPRLPRPRPRPYQTPRP	-0.421

Sequence	shrunken log2 fold change
RRIRNRPPRLPRPRPRPFPQPRP	-0.186
RRIRWRPPRLPRPRPRPDIIPRP	0.0562
RRIRMRPPRLPRPRPRPFEPPRP	0.174
RRIRMRPPRLPRPRPRPNYIPRP	-0.492
RRIRFRPPRLPRPRPRPPAPPRP	1.07
RRIRKRPPRLPRPRPRPHPKPRP	0.386
RRIRIRPPRLPRPRPRPKPLPRP	-0.191
RRIRLRPPRLPRPRPRPIVAPRP	-0.0323
RRIRPRPPRLPRPRPRPDFYPRP	-0.156
RRIRVRPPRLPRPRPRPSLCPRP	-0.233
RRIRYRPPRLPRPRPRPRAYPRP	-0.0333
RRIRWRPPRLPRPRPRPALQPRP	0.367
RRIRLRPPRLPRPRPRPDPIPRP	0.0451
RRIRFRPPRLPRPRPRPRRKPRP	0.246
RRIRRRPPRLPRPRPRPSDEPRP	-0.0356
RRIRTRPPRLPRPRPRPKCQPRP	-0.144
RRIRPRPPRLPRPRPRPFVVPRP	-0.233
RRIRERPPRLPRPRPRPNDLPRP	-0.016
RRIRTRPPRLPRPRPRPGRHPRP	0.0235
RRIRLRPPRLPRPRPRPHYLPRP	-0.278
RRIRCRPPRLPRPRPRPMRWPRP	0.325
RRIRDRPPRLPRPRPRPFTSPRP	-0.0273
RRIRQRPPRLPRPRPRPDNIPRP	-0.00584
RRIRWRPPRLPRPRPRPPCAPRP	0.563
RRIRMRPPRLPRPRPRPHRGPRP	0.0388

Sequence	shrunken log2 fold change
RRIRMRPPRLPRPRPRPTQWPRP	0.479
RRIRSRPPRLPRPRPRPWTVPRP	-0.0297
RRIRFRPPRLPRPRPRPCAGPRP	-0.177
RRIRWRPPRLPRPRPRPPRGPRP	0.584
RRIRSRPPRLPRPRPRPFYSPRP	-0.131
RRIRTRPPRLPRPRPRPRKGPRP	0.333
RRIRNRPPRLPRPRPRPQSCPRP	-0.00689
RRIRSRPPRLPRPRPRPWWYPRP	-0.0611
RRIRKRPPRLPRPRPRPKKPPRP	0.0909
RRIRTRPPRLPRPRPRPVHKPRP	-0.285
RRIRGRPPRLPRPRPRPKWHPRP	0.542
RRIRSRPPRLPRPRPRPCKLPRP	-0.218
RRIRHRPPRLPRPRPRPDKHPRP	-0.25
RRIRGRPPRLPRPRPRPSMNPRP	0.156
RRIRRRPPRLPRPRPRPHQTPRP	0.17
RRIRIRPPRLPRPRPRPNEAPRP	0.135
RRIRSRPPRLPRPRPRPPVPPRP	0.378
RRIRLRPPRLPRPRPRPHTMPRP	-1.13
RRIRNRPPRLPRPRPRPTHNPRP	-0.114
RRIRRRPPRLPRPRPRPFIDPRP	-0.162
RRIRGRPPRLPRPRPRPSWKPRP	0.437
RRIRRRPPRLPRPRPRPFHDPRP	-0.307
RRIRWRPPRLPRPRPRPQFLPRP	-0.0223
RRIRSRPPRLPRPRPRPKGWPRP	1.19
RRIRGRPPRLPRPRPRPSVMPRP	0.107

Sequence	shrunken log2 fold change
RRIRWRPPRLPRPRPRPVQDPRP	-0.103
RRIRIRPPRLPRPRPRPITYPRP	-0.323
RRIRLRPPRLPRPRPRPTFFPRP	0.14
RRIRHRPPRLPRPRPRPWAAPRP	-0.0958
RRIRIRPPRLPRPRPRPYDGPRP	-0.0104
RRIRTRPPRLPRPRPRPTDWPRP	0.218
RRIRGRPPRLPRPRPRPDCLPRP	0.975
RRIRLRPPRLPRPRPRPTGRPRP	0.105
RRIRSRPPRLPRPRPRPFNIPRP	-0.109
RRIRQRPPRLPRPRPRPSKTPRP	-0.0854
RRIRTRPPRLPRPRPRPDCCPRP	0.135
RRIRLRPPRLPRPRPRPYRYPRP	-0.254
RRIRGRPPRLPRPRPRPFCFPRP	0.778
RRIRMRPPRLPRPRPRPCHIPRP	-0.0247
RRIRTRPPRLPRPRPRPTFEPRP	-0.0371
RRIRARPPRLPRPRPRPASWPRP	0.537
RRIRKRPPRLPRPRPRPHQRPRP	-0.0795
RRIRKRPPRLPRPRPRPQGNPRP	0.0216
RRIRQRPPRLPRPRPRPSYAPRP	0.0242
RRIRMRPPRLPRPRPRPWMPPRP	0.0554
RRIRWRPPRLPRPRPRPHPWPRP	0.0859
RRIRGRPPRLPRPRPRPYIMPRP	-0.746
RRIRPRPPRLPRPRPRPTIWPRP	0.349
RRIRCRPPRLPRPRPRPGRYPRP	0.0533
RRIRSRPPRLPRPRPRPKHRPRP	-0.00685
